# Source: paper doi:10.1101/2025.01.13.632804
# What was measured:
# GST-FKBP12 (mouse) = GST-FKBP12 (mouse) (UniProt P26883); assay: pull-down
# [1] = molecular target: Porcine brain tubulin (growing microtubules) (porcine); assay: TIRF microscopy of GFP-CRMP2A on growing microtubules in vitro
# Chain of UniProt P26883 (P26883 whole entry): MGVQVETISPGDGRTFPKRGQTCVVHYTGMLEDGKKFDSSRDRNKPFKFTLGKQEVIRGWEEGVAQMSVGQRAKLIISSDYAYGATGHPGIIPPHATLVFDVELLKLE
substance,measurement,setting,value
Cdk5-phosphorylated FLAG-CRMP2A (natural protein),"pull-down signal normalized to the input, relative to CRMP2A without Cdk5",GST-FKBP12 (mouse),0.39
"FLAG-CRMP2A S27A, S623A, expressed under high Cdk5 activity (natural protein)",pull-down signal relative to WT CRMP2A in the presence of Cdk5,GST-FKBP12 (mouse),2.59
"FLAG-CRMP2A S27A, expressed under high Cdk5 activity (natural protein)",pull-down signal relative to WT CRMP2A in the presence of Cdk5,GST-FKBP12 (mouse),2.57
"FLAG-CRMP2A S623A, expressed under high Cdk5 activity (natural protein)",pull-down signal relative to WT CRMP2A in the presence of Cdk5,GST-FKBP12 (mouse),1.75
FLAG-CRMP2AΔ604 (CRMP2A 1-604) (domain or fragment),"pull-down signal normalized to the input, relative to CRMP2A",GST-FKBP12 (mouse),2.82
FLAG-tagged GFP-CRMP2A (natural protein),length of the GFP-positive ends,[1],0.297 um
same,length of the GFP-positive ends (with FKBP12),[1],0.133 um
same,persistence of GFP signal,[1],33.1 s
same,persistence of GFP signal (with FKBP12),[1],18.7 s
